In data set [1] the test system is Hep3B cells. Kind of data set: Co-transfection of SQT-Bim-BH3 mRNA with Bcl-2-like Trap mRNAs, % phase confluence. Type of data set: cell-based. The text has this: C32, Bcl-xL del.C24, Mcl-1 del.N/C(2010), and Bcl-xL (D61A) del.C24.
For data set [2], the system named is HeLa cells. Kind of data set: Long-term live cell imaging of GFP-positive cells after mRNA transfection. Type of data set: cell-based.
Data set [3] relates to primary mouse hepatocytes. Briefly: Sorafenib combination in primary mouse hepatocytes. The class given is cell-based. Particulars: SQT-PUMA-BH3 205 pM or 1100 pM, SQT-Bad-BH3 549 pM or 1100 pM, sorafenib 0-10 uM. On the procedure: Similar combination experiments were performed with primary mouse hepatocytes, treated with SQT-PUMA-BH3 (205 pM or 1100 pM) or SQT-Bad-BH3 (549 pM or 1100 pM) in combination with sorafenib (0-10 μM). […] Thus, normal primary liver cells are spared by the combination treatment, indicating the combination treatment can selectively kill liver cancer cells over normal liver cells.

The next data set concerns the target T1, BCL-XL (Homo sapiens, UniProt Q07817).
T1 construct: endogenous in cells; host or cells: cells transfected with SQT-BH3 mRNA (HeLa by context)
Kind of data set: Co-immunoprecipitation after mRNA transfection. Particulars: within two hours after mRNA transfection. Type of data set: binding.

Data set [4] has as its system primary hepatocytes. Briefly: Apoptosis induction by MC3 LNP-formulated mRNAs in primary hepatocytes cultured in vitro. The class given is cell-based. Conditions: LNPs.
Data set [5] concerns HeLa cells. Kind of data set: PARP-1 cleavage by SDS-PAGE and Western blotting after transfection of mRNAs encoding SQT-BH3 constructs. The class given is cell-based. Conditions: 4 hours after transfection. The text has this:
The cleavage of PARP-1 was detected by the appearance of a faster-migrating band and concomitant loss of the full-length band by SDS-PAGE and Western blotting. Western blotting with anti-actin antibodies served as a loading control.
(A western blot detects proteins with antibodies after separation by electrophoresis.)

In data set [6] the test system is Hep3B cells. Kind of data set: SQT-BH3 in combination with siMCL1 or sorafenib, YOYO-3. The class given is cell-based. Conditions: 10 uM sorafenib tosylate, 24 hours after treatment.
Data set [7] has as its system primary hepatocytes. Particulars: 10uM sorafenib tosylate, 24 hours after treatment.
Experimental: Controls were an empty SQT construct (“SQT-dummy”), a non-targeting siRNA and PBS. For treatment of Hep3B cells, 20,000 Hep3B cells/well per plated in 96-well plates. At Day 1, some wells were transfected with siMCL1 (Dharmacon, ON-TARGETplus Human MCL1 (4170) siRNA-SMARTpool, # L-004501-00-0005) or non-targeting siRNA (ON-TARGETplus Non-targeting Control Pool, # D-001810-10-05). […] 24 hours after treatment, YOYO®-3 iodide (Life Technologies) viability dye was added to each well and cell death was measured on an IncuCyte ZOOM® using YOYO-3 fluorescence as a readout (=“Apoptosis”). For treatment of primary hepatocytes, 18,000 mouse hepatocytes (Gibco) were seeded in each well of a 96-well plate. At Day 1, some wells were transfected with siMCL1 (Dharmacon, SMARTpool: ON-TARGETplus Mc11 siRNA, # L-062229-00-0005) or non-targeting siRNA (ON-TARGETplus Non-targeting Control Pool, # D-001810-10-05). […] 24 hours after treatment, Caspase 3/7 reagent (EssenBio) apoptosis dye was added to each well and cell death was measured on an IncuCyte ZOOM® using the caspase 3/7 reagent fluorescence as a readout (=“Apoptosis”).
Data set [8] relates to Hep3B cells. Kind of data set: Cell death by YOYO-3 with MC3-formulated LNPs. Type of data set: cell-based. Conditions: relatively high concentration. On the procedure: The efficacy of mRNAs encoding SQT-BH3 constructs in inducing cell death was tested both in hepatocellular carcinoma cell lines as well as in primary hepatocytes using lipid nanoparticle (LNP)-formulated constructs. Hep3B cells were treated with varying doses (0.78 ng to 50 ng) of MC3-formulated LNPs in the presence of YOYO-3 (Life Technologies), a DNA dye that is taken up preferentially by dead cells that is used to measure the extent of cell death. MC3 lipid nanoparticles included MC3 50%, DSPC 10%, Cholesterol 38.5%, PEG-DMG 1.5%, N:P ˜5.5.

Another data set concerns the target T2, BCL-2 (Homo sapiens, UniProt P10415).
T2 construct: endogenous in cells; host or cells: cells transfected with SQT-BH3 mRNA (HeLa by context)
Kind of data set: Co-immunoprecipitation after mRNA transfection. Type of data set: binding. Particulars: within two hours after mRNA transfection.

The subject of data set [9] is Hep3B cells. Briefly: Sorafenib combination, YOYO-3 apoptosis on IncuCyte ZOOM. The class given is cell-based. On the procedure: To determine the effect of SQT-BH3 constructs in combination with the protein tyrosine kinase inhibitor Sorafenib on liver cells, 20,000 Hep3B cells/well in a 96 well plate were treated with increasing amounts of sorafenib tosylate (Selleck Chemicals) and transfected with LNPs containing SQT-PUMA-BH3 (68 pM) or SQT-Bad-BH3 (550pM).

The next data set addresses T3, MCL-1 (Homo sapiens, UniProt Q07820).
T3 construct: performed in lysates of HeLa cells transfected with mRNAs encoding SQT-BH3 constructs; endogenous in cells; host or cells: HeLa
Briefly: Co-immunoprecipitation in lysates of transfected HeLa cells. The class given is binding. Particulars: lysates of HeLa cells transfected with mRNAs.

Entries after “also recorded” stand apart in the source; their conditions may differ.

T2 sequence (P10415 whole entry): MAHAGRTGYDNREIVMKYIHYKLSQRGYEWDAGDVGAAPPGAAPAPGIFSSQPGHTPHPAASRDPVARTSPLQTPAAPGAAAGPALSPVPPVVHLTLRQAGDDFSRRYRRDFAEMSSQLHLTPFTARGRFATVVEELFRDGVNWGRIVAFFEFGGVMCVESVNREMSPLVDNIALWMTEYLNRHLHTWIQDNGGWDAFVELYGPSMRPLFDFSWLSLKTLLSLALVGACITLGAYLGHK
T3 sequence (Q07820 whole entry): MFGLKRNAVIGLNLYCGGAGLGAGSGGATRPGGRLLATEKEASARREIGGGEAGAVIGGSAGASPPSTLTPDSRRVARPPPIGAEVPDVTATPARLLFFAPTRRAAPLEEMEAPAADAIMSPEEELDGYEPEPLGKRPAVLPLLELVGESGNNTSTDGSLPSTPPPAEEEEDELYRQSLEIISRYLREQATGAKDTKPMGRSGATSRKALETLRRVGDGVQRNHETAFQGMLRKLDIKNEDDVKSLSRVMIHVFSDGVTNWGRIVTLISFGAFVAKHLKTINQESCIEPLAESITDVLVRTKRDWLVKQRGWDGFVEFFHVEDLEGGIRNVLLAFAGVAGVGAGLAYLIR
T1 sequence (Q07817 whole entry): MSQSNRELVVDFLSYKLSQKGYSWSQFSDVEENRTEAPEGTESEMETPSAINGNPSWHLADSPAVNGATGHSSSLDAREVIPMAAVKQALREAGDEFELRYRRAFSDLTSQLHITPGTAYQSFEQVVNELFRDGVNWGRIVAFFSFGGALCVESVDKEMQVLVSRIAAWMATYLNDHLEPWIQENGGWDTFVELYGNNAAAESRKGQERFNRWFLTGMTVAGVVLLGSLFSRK

B1: Bcl-xL del.C24 BH3 Trap.cFLAG: Bcl-2-like trap mRNA, SEQ ID NO: 83, FLAG tag (nucleic acid)
chain: ATGTCCCAGAGCAACAGGGAACTCGTAGTCGATTTCTTGTCCTACAAGCTCAGTCAGAAGGGCTACTCTTGGTCCCAATTTTCCGACGTGGAAGAAAATCGGACAGAAGCCCCTGAGGGAACCGAGAGTGAGATGGAGACCCCGTCTGCAATCAACGGGAACCCTTCTTGGCACTTGGCCGACAGTCCCGCTGTGAATGGCGCCACAGGTCACAGTTCATCACTCGACGCTAGAGAAGTTATACCCATGGCAGCAGTCAAGCAAGCTCTGCGGGAGGCCGGCGACGAGTTCGAACTTCGGTACCGCCGAGCTTTTTCTGACCTGACTAGTCAGCTGCATATTACTCCGGGCACTGCGTACCAGTCGTTCGAACAGGTGGTTAATGAACTATTTCGAGACGGCGTGAATTGGGGCAGAATTGTAGCCTTTTTCTCCTTTGGAGGTGCACTGTGTGTCGAGAGCGTCGATAAGGAAATGCAGGTGTTGGTGAGCCGTATCGCGGCCTGGATGGCCACGTATCTGAACGACCATTTGGAACCATGGATCCAAGAAAACGGGGGTTGGGATACTTTCGTGGAGTTATATGGCAACAATGCTGCAGCGGAAAGTCGCAAGGGCCAGGAACGAGACTATAAAGATGACGACGATAAA
modifications: FLAG tag; Synthetic Bcl-xL del.C24 mRNA sequence with FLAG epitope tag
In the case of B1, in the data set with Hep3B cells [1], the “fate of SQT-BimBH3-transfected cells co-transfected with Trap construct” value was “exhibited substantial apoptosis and cell death”.

B2: SQT-Bad-BH3: mRNA (SEQ ID NO: 51, FLAG) encoding SQT scaffold with Bad BH3 domain in N-terminus (nucleic acid)
chain: ATGATCCCAAGAAACCTGTGGGCTGCACAACGCTACGGAAGAGAACTGCGCCGGATGAGCGACGAATTTGTGGACTCGTTCAAGAAGGGGGGACTCTCAGAAGCGAAGCCTGCCACCCCCGAAATCCAGGAAATCGTCGACAAGGTCAAGCCGCAGCTTGAGGAAAAGACCAACGAGACTTACGGAAAACTGGAGGCCGTGCAGTATAAGACCCAAGTGTTGGCCTCCACCAACTACTACATTAAGGTCCGCGCCGGCGATAACAAGTACATGCACCTGAAGGTGTTCAATGGTCCTCCGGGACAGAACGCGGACAGGGTGCTGACTGGCTACCAAGTGGACAAGAACAAGGACGACGAGCTGACGGGCTTCGACTACAAGGATGATGATGACAAA
modifications: FLAG tag; Synthetic SQT-BAD-BH3 mRNA sequence with FLAG epitope tag
Regarding B2, in the data set with HeLa cells [2], the cell-killing activity entry is reported as “did not show cell-killing activity”. For the same molecule, the “apoptosis in combination with sorafenib” value in data set [3] was “neither SQT-BH3 construct, in combination with sorafenib, caused apoptosis”. Moreover, the “interaction with BCL-XL by co-immunoprecipitation” value with BCL-XL is “also able to co-immunoprecipitate BCL-XL and BCL-2, although to a lesser extent than SQT-PUMA-BH3 and SQT-Bim-BH3”. The PARP-1 cleavage entry in the data set with primary hepatocytes [4] was “did not”. Besides, the “PARP-1 cleavage, extent” value in the data set on HeLa cells [5] is on record as “also induced PARP-1 cleavage, although to a lesser extent than SQT-PUMA-BH3 or SQT-Bim-BH3”. Besides, in the data set on Hep3B cells [6], the “apoptosis (YOYO-3) in combination with either siMCL1 or sorafenib” value was “led to a marked increase in apoptosis as compared to treatment with the SQT-BH3 construct in combination with non-targeting siRNA or PBS; also recorded: synergistic pro-apoptotic effect”. Also, the “apoptosis (caspase 3/7) in combination with siMCL1, sorafenib or controls” value with primary hepatocytes [7] is on record as “did not lead to increased apoptosis as compared to treatment with the control SQT-dummy construct”. For the same molecule, the “apoptosis and cell death (YOYO-3)” value in the data set on Hep3B cells [8] is “behaved similar to the empty MC3 LNP control and mRNAs encoding SQT”. Moreover, the “interaction with BCL-2 by co-immunoprecipitation” value in the data set with BCL-2 is “also able to co-immunoprecipitate BCL-XL and BCL-2, although to a lesser extent than SQT-PUMA-BH3 and SQT-Bim-BH3”. The “nature of combination effect with sorafenib” value with Hep3B cells [9] (SQT-PUMA-BH3 68 pM or SQT-Bad-BH3 550pM) was “synergistic effect”. In addition, the “apoptosis (YOYO-3), combination with sorafenib vs sorafenib alone” value in the data set with Hep3B cells [9] (SQT-PUMA-BH3 68 pM or SQT-Bad-BH3 550pM in LNPs, increasing sorafenib tosylate) is recorded as “increased apoptosis of the liver cells as compared to treatment with sorafenib alone”.

B3: Bcl-w (C29S/A128E) BH3 Trap.n9V5: Bcl-2-like trap mRNA, SEQ ID NO: 81, V5 tag (nucleic acid)
chain: ATGATTCCCAATCCGCTCCTCGGGCTTGACGCTACACCAGCCAGTGCACCAGACACGAGGGCGCTGGTTGCCGATTTCGTGGGATACAAGCTCAGGCAAAAAGGGTACGTAAGCGGTGCCGGGCCCGGGGAGGGACCGGCTGCCGATCCACTCCACCAGGCTATGAGGGCAGCTGGGGACGAATTCGAAACACGCTTTCGGCGGACTTTCTCCGACCTTGCCGCACAGCTACACGTCACTCCCGGGAGCGCTCAGCAGCGCTTCACGCAGGTCTCAGACGAATTGTTCCAAGGCGGCCCTAATTGGGGAAGATTGGTGGCCTTCTTCGTGTTTGGGGCAGCACTGTGCGCTGAGTCCGTGAACAAAGAAATGGAACCCCTCGTTGGCCAAGTCCAAGAATGGATGGTGGAATATCTGGAAACACAGTTAGCGGATTGGATTCACTCATCTGGGGGCTGGGCTGAGTTTACAGCACTGTACGGGGACGGTGCCCTAGAGGAGGCCCGAAGACTGAGGGAAGGCAACTGGGCCAGCGTTCGCACGGTGTTGACCGGCGCGGTTGCTTTGGGCGCTTTGGTTACCGTCGGCGCATTCTTCGCCAGTAAA
modifications: V5 tag; Synthetic Bcl-w (C29S/A128E)BH3 mRNA sequence with V5 epitope tag
For B3, the “fate of SQT-BimBH3-transfected cells co-transfected with Trap construct” value in the data set with Hep3B cells [1] is “remained alive”. Besides, the “inhibition of SQT-BH3-induced cell death (% phase confluence)” value in the data set on Hep3B cells [1] (co-transfected with SQT-Bim-BH3 mRNA, ratio Trap construct:SQT-BH3 construct 1:2, 24 hour period) is reported as “most potent inhibitor of SQT-BH3-induced cell death; also recorded: to a substantially greater degree than Bcl-xL (D61A) del.C24 BH3 Trap.cFLAG”.

B4: SQT-Noxa-BH3: mRNA (SEQ ID NO: 52, FLAG) encoding SQT scaffold with Noxa BH3 domain in N-terminus (nucleic acid)
chain: ATGATCCCAAGACCCGCAGAGCTCGAAGTGGAATGCGCTACCCAACTTAGACGGTTCGGAGACAAGCTGAACTTTCGGCAGAAGCTCCTGGGACTCTCAGAAGCGAAGCCTGCCACCCCCGAAATCCAGGAAATCGTCGACAAGGTCAAGCCGCAGCTTGAGGAAAAGACCAACGAGACTTACGGAAAACTGGAGGCCGTGCAGTATAAGACCCAAGTGTTGGCCTCCACCAACTACTACATTAAGGTCCGCGCCGGCGATAACAAGTACATGCACCTGAAGGTGTTCAATGGTCCTCCGGGACAGAACGCGGACAGGGTGCTGACTGGCTACCAAGTGGACAAGAACAAGGACGACGAGCTGACGGGCTTCGACTACAAGGATGATGATGACAAA
modifications: FLAG tag; Synthetic SQT-NoxA-BH3 mRNA sequence with FLAG epitope tag
Turning to B4, in the data set with MCL-1, the “co-immunoprecipitation of MCL-1” value is listed as “able to co-immunoprecipitate”. Further, the cell-killing activity result in the data set with HeLa cells [2] was “did not show cell-killing activity”. Further, the PARP-1 cleavage result with primary hepatocytes [4] is listed as “did not”. For the same molecule, in the data set with HeLa cells [5], the “PARP-1 cleavage, extent” value is recorded as “also induced PARP-1 cleavage, although to a lesser extent than SQT-PUMA-BH3 or SQT-Bim-BH3”. Besides, the “apoptosis and cell death (YOYO-3)” value in the data set on Hep3B cells [8] is “behaved similar to the empty MC3 LNP control and mRNAs encoding SQT”.

Values taken from patent US20190119357A1, “MESSENGER RIBONUCLEIC ACIDS FOR THE PRODUCTION OF INTRACELLULAR BINDING POLYPEPTIDES AND METHODS OF USE THEREOF” (ModernaTX, Inc., priority 2015, published 2019).
